Article doi:10.1101/2022.12.07.519454 (bioRxiv, 2022)

Target: T1, GST-tagged yeast Sin3 PAH2 protein (residues 402-473) (S. cerevisiae, UniProt P22579 402-473)
T1 sequence (looked up): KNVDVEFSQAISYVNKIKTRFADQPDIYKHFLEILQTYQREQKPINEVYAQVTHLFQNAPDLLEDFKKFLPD
Assay: fluorescence polarisation

- IC50: 53.3 ± 2.4 µM
- Ki: 11.4 µM
B1: unlabeled Ume6 SID peptide (Ume6 residues 516-531) (peptide, UniProt P39001 516-531, looked up)
peptide: LDDDLGTAAAVLSNMR
